Source: paper PMC9076029 (Journal of Molecular Biology, 2022)
Where two headings read alike, the source gives them in different places.

Legend:
Assay in all cases: ITC
[1] = molecular target: T1, SARS-CoV-2 spike protein receptor binding domain, wild-type (SARS-CoV-2, UniProt P0DTC2)
[2] = molecular target: T1, SARS-CoV-2 spike protein receptor …; remark: listed apart in the source
[3] = molecular target: T1, SARS-CoV-2 spike protein receptor …; remark: listed apart in the source
[4] = molecular target: T1, SARS-CoV-2 spike protein receptor …; remark: listed apart in the source

B1: LY-CoV016 single chain variable fragment (scFv, V domains shown)
VH: EVQLVESGGGLVQPGGSLRLSCAASGFTVSSNYMSWVRQAPGKGLEWVSVIYSGGSTFYADSVKGRFTISRDNSMNTLFLQMNSLRAEDTAVYYCARVLPMYGDYLDYWGQGTLVTVSS
VL: not shown
- Kd [1]: 49.3 ± 10.1 nM
- dH [1]: -11.7 ± 0.1 kcal/mol

B2: LY-CoV555 single chain variable fragment (scFv, V domains shown)
VH: QVQLVQSGAEVKKPGSSVKVSCKASGGTFSNYAISWVRQAPGQGLEWMGRIIPILGIANYAQKFQGRVTITADKSTSTAYMELSSLRSEDTAVYYCARGYYEARHYYYYYAMDVWGQGTAVTVSS
VL: not shown
- Kd [2]: 3.8 ± 1.9 nM
- Kd [3]: 3.9 ± 1.9 nM

B3: REGN10987 single chain variable fragment (scFv, V domains shown)
VH: QVQLVESGGGVVQPGRSLRLSCAASGFTFSNYAMYWVRQAPGKGLEWVAVISYDGSNKYYADSVKGRFTISRDNSKNTLYLQMNSLRTEDTAVYYCASGSDYGDYLLVYWGQGTLVTVSS
VL: QSALTQPASVSGSPGQSITISCTGTSSDVGGYNYVSWYQQHPGKAPKLMIYDVSKRPSGVSNRFSGSKSGNTASLTISGLQSEDEADYYCNSLTSISTWVFGGGTKLTVL
- Kd [4]: 34.3 ± 8.1 nM
